Biological target: T1, EGFR (on EGFR-expressing A431 cells) (UniProt P00533 25-1210, limits assumed)
T1 construct: whole, on cells; A431 is a human cell line; also called EGFR-positive cells; EGFR-overexpressing A431 cells
Experiment: flow cytometry on A431 cells

Binder	binding result
Domain-exchanged one-armed anti-EGFR antibody (CH3-KiH domain-exchanged hu425 Fab on SEED AG heavy chain, with huFc_GA SEED) (antibody, One Fab arm only (monovalent); also called One-armed CH3 domain-exchanged anti-EGFR antibody; one-armed domain-exchanged anti-EGFR antibody) heavy: QVQLVQSGAEVKKPGASVKVSCKASGYTFTSHWMHWVRQAPGQGLEWIGEFNPSNGRTNYNEKFKSKATMTVDTSTNTAYMELSSLRSEDTAVYYCASRDYDYDGRYFDYWGQGTLVTVSSASTKGEPQVYTLPPSRDELTKNQVSLYCLVKGFYPSDIAVEWESNGQPENNYKTTPPVLDSDGSFFLYSKLTVDKSRWQQGNVFSCSVMHEALHNHYTQKSLSLSKSCDKTHTCPPCPAPELLGGPSVFLFPPKPKDTLMISRTPEVTCVVVDVSHEDPEVKFNWYVDGVEVHNAKTKPREEQYNSTYRVVSVLTVLHQDWLNGKEYKCKVSNKALPAPIEKTISKAKGQPFRPEVHLLPPSREEMTKNQVSLTCLARGFYPKDIAVEWESNGQPENNYKTTPSRQEPSQGTTTFAVTSKLTVDKSRWQQGNVFSCSVMHEALHNHYTQKTISLSPGK EPKSSDKTHTCPPCPAPELLGGPSVFLFPPKPKDTLMISRTPEVTCVVVDVSHEDPEVKFNWYVDGVEVHNAKTKPREEQYNSTYRVVSVLTVLHQDWLNGKEYKCKVSNKALPAPIEKTISKAKGQPREPQVYTLPPPSEELALNELVTLTCLVKGFYPSDIAVEWLQGSQELPREKYLTWAPVLDSDGSFFLYSILRVAAEDWKKGDTFSCSVMHEALHNHYTQKSLDRSPGK light: DIQMTQSPSSLSASVGDRVTITCSASSSVTYMYWYQQKPGKAPKLLIYDTSNLASGVPSRFSGSGSGTDYTFTISSLQPEDIATYYCQQWSSHIFTFGQGTKVEIKRTVAEPQVYTLPPSRDELTKNQVSLTCLVKGFYPSDIAVEWESNGQPENNYKTTPPVLDSDGSFFLTSKLTVDKSRWQQGNVFSCSVMHEALHNHYTQKSLSLSGEC	binds
one-armed anti-EGFR SEED antibody with Charge pair CH3 domain-exchanged Fab, Variant 1 (antibody, hu425 Fv; one Fab arm only; also called Charge pair variant 1) heavy: QVQLVQSGAEVKKPGASVKVSCKASGYTFTSHWMHWVRQAPGQGLEWIGEFNPSNGRTNYNEKFKSKATMTVDTSTNTAYMELSSLRSEDTAVYYCASRDYDYDGRYFDYWGQGTLVTVSSASTKGEPQVYTLPPSRKEMTKNQVSLTCLVKGFYPSDIAVEWESNGQPENNYKTTPPVLKSDGSFFLYSKLTVDKSRWQQGNVFSCSVMHEALHNHYTQKSLSLSKSCDKTHTCPPCPAPELLGGPSVFLFPPKPKDTLMISRTPEVTCVVVDVSHEDPEVKFNWYVDGVEVHNAKTKPREEQYNSTYRVVSVLTVLHQDWLNGKEYKCKVSNKALPAPIEKTISKAKGQPFRPEVHLLPPSREEMTKNQVSLTCLARGFYPKDIAVEWESNGQPENNYKTTPSRQEPSQGTTTFAVTSKLTVDKSRWQQGNVFSCSVMHEALHNHYTQKTISLSPGK light: DIQMTQSPSSLSASVGDRVTITCSASSSVTYMYWYQQKPGKAPKLLIYDTSNLASGVPSRFSGSGSGTDYTFTISSLQPEDIATYYCQQWSSHIFTFGQGTKVEIKRTVAEPQVYTLPPSREEMTKNQVSLTCLVKGFYPSDIAVEWESNGQPENNYDTTPPVLDSDGSFFLYSDLTVDKSRWQQGNVFSCSVMHEALHNHYTQKSLSLSGEC EPKSSDKTHTCPPCPAPELLGGPSVFLFPPKPKDTLMISRTPEVTCVVVDVSHEDPEVKFNWYVDGVEVHNAKTKPREEQYNSTYRVVSVLTVLHQDWLNGKEYKCKVSNKALPAPIEKTISKAKGQPREPQVYTLPPPSEELALNELVTLTCLVKGFYPSDIAVEWLQGSQELPREKYLTWAPVLDSDGSFFLYSILRVAAEDWKKGDTFSCSVMHEALHNHYTQKSLDRSPGK	binds

Source: patent publication US20180016354A1 (Merck KGaA, published 2018)
